This assay has as its target nine-person peanut-specific IgE antibody pool. Put plainly: competitive ELISA inhibition, pooled serum IgE on coated crude peanut. On the technique in general: ELISA stands for enzyme-linked immunosorbent assay.

B1: Ara h 2 (purified from peanut) (protein)
chain: QQWELQGDRRCQSQLERANLRPCEQHLMQKIQRDEDSYERDPYSPSQDPYSPSPYDRRGAGSSQHQERCCNELNEFENNQRCMCEALQQIMENQSDRLQGRQQEQQFKRELRNLPQQCGLRAPQRCDLDVESGGRDRY
modifications: 20% carbohydrate
One may read the IC50 as the concentration needed to halve the response being measured. A high value points to a need for much substance. B1: the half-inhibitory concentration (IC50) turned out to be 0.4 ng/mL.

The values above are taken from patent US20120283421A1.
